Columns and labels:
Bruno = Bruno (UniProt O02374 1-604); assay: EMSA
[1] = biological target: T1, Pumilio RNA-binding domain (UniProt P25822 1091-1426); assay: EMSA
T1 sequence: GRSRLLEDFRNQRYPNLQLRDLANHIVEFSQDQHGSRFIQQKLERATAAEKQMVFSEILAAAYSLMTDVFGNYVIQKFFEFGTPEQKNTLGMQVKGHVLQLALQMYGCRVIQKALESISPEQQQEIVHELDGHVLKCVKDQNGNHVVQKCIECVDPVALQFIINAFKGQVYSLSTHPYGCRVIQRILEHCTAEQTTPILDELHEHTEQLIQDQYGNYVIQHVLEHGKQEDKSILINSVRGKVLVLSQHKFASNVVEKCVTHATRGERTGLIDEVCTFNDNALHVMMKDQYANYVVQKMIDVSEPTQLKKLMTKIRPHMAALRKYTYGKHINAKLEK

B1: Scramble RNA (ssRNA)
RNA: UAAUCAAGAUACAUAUAUGC
B1: no binding (Bruno); no binding [1].

From article doi:10.1101/285569
